Reference: patent publication US20230407373A1 (priority 2020, published 2023)
Where two headings read alike, the source gives them in different places.

B1: SAFB: host protein, UniProt Q15424 (protein, UniProt Q15424 2-915, looked up)
Scaffold attachment factor B1: AETLSGLGDSGAAGAAALSSASSETGTRRLSDLRVIDLRAELRKRNVDSSGNKSVLMERLKKAIEDEGGNPDEIEITSEGNKKTSKRSSKGRKPEEEGVEDNGLEENSGDGQEDVETSLENLQDIDIMDISVLDEAEIDNGSVADCVEDDDADNLQESLSDSRELVEGEMKELPEQLQEHAIEDKETINNLDTSSSDFTILQEIEEPSLEPENEKILDILGETCKSEPVKEESSELEQPFAQDTSSVGPDRKLAEEEDLFDSAHPEEGDLDLASESTAHAQSSKADSLLAVVKREPAEQPGDGERTDCEPVGLEPAVEQSSAASELAEASSEELAEAPTEAPSPEARDSKEDGRKFDFDACNEVPPAPKESSTSEGADQKMSSPEDDSDTKRLSKEEKGRSSCGRNFWVSGLSSTTRATDLKNLFSKYGKVVGAKVVTNARSPGARCYGFVTMSTAEEATKCINHLHKTELHGKMISVEKAKNEPVGKKTSDKRDSDGKKEKSSNSDRSTNLKRDDKCDRKDDAKKGDDGSGEKSKDQDDQKPGPSERSRATKSGSRGTERTVVMDKSKGVPVISVKTSGSKERASKSQDRKSASREKRSVVSFDKVKEPRKSRDSESHSRVRERSEREQRMQAQWEREERERLEIARERLAFQRQRLERERMERERLERERMHVEHERRREQERIHREREELRRQQELRYEQERRPAVRRPYDLDRRDDAYWPEAKRAALDERYHSDFNRQDRFHDFDHRDRGRYPDHSVDRREGSRSMMGEREGQHYPERHGGPERHGRDSRDGWGGYGSDKRMSEGRGLPPPPRRDWGDHGRREDDRSWQGTADGGMMDRDHKRWQGGERSMSGHSGPGHMMNRGGMSGRGSFAPGGASRGHPIPHGGMQGGFGGQSRGSRPSDARFTRRY
B2: FUBP1: host protein, UniProt Q96AE4 (protein, UniProt Q96AE4 2-644, looked up)
Far upstream element-binding …: ADYSTVPPPSSGSAGGGGGGGGGGGVNDAFKDALQRARQIAAKIGGDAGTSLNSNDYGYGGQKRPLEDGDQPDAKKVAPQNDSFGTQLPPMHQQQSRSVMTEEYKVPDGMVGFIIGRGGEQISRIQQESGCKIQIAPDSGGLPERSCMLTGTPESVQSAKRLLDQIVEKGRPAPGFHHGDGPGNAVQEIMIPASKAGLVIGKGGETIKQLQERAGVKMVMIQDGPQNTGADKPLRITGDPYKVQQAKEMVLELIRDQGGFREVRNEYGSRIGGNEGIDVPIPRFAVGIVIGRNGEMIKKIQNDAGVRIQFKPDDGTTPERIAQITGPPDRCQHAAEIITDLLRSVQAGNPGGPGPGGRGRGRGQGNWNMGPPGGLQEFNFIVPTGKTGLIIGKGGETIKSISQQSGARIELQRNPPPNADPNMKLFTIRGTPQQIDYARQLIEEKIGGPVNPLGPPVPHGPHGVPGPHGPPGPPGPGTPMGPYNPAPYNPGPPGPAPHGPPAPYAPQGWGNAYPHWQQQAPPDPAKAGTDPNSAAWAAYYAHYYQQQAQPPPAAPAGAPTTTQTNGQGDQQNPAPAGQVDYTKAWEEYYKKMGQAVPAPTGAPPGGQPDYSAAWAEYYRQQAAYYAQTSPQGMPQHPPAPQGQ
B3: RBM3: host protein, UniProt P98179 (protein, UniProt P98179 1-157, looked up)
RNA-binding protein 3: MSSEEGKLFVGGLNFNTDEQALEDHFSSFGPISEVVVVKDRETQRSRGFGFITFTNPEHASVAMRAMNGESLDGRQIRVDHAGKSARGTRGGGFGAHGRGRSYSRGGGDQGYGSGRYYDSRPGGYGYGYGRSRDYNGRNQGGYDRYSGGNYRDNYDN
B4: ILF3: host protein, UniProt Q12906 (protein, UniProt Q12906 1-894, looked up)
Interleukin enhancer-binding …: MRPMRIFVNDDRHVMAKHSSVYPTQEELEAVQNMVSHTERALKAVSDWIDEQEKGSSEQAESDNMDVPPEDDSKEGAGEQKTEHMTRTLRGVMRVGLVAKGLLLKGDLDLELVLLCKEKPTTALLDKVADNLAIQLAAVTEDKYEILQSVDDAAIVIKNTKEPPLSLTIHLTSPVVREEMEKVLAGETLSVNDPPDVLDRQKCLAALASLRHAKWFQARANGLKSCVIVIRVLRDLCTRVPTWGPLRGWPLELLCEKSIGTANRPMGAGEALRRVLECLASGIVMPDGSGIYDPCEKEATDAIGHLDRQQREDITQSAQHALRLAAFGQLHKVLGMDPLPSKMPKKPKNENPVDYTVQIPPSTTYAITPMKRPMEEDGEEKSPSKKKKKIQKKEEKAEPPQAMNALMRLNQLKPGLQYKLVSQTGPVHAPIFTMSVEVDGNSFEASGPSKKTAKLHVAVKVLQDMGLPTGAEGRDSSKGEDSAEETEAKPAVVAPAPVVEAVSTPSAAFPSDATAEQGPILTKHGKNPVMELNEKRRGLKYELISETGGSHDKRFVMEVEVDGQKFQGAGSNKKVAKAYAALAALEKLFPDTPLALDANKKKRAPVPVRGGPKFAAKPHNPGFGMGGPMHNEVPPPPNLRGRGRGGSIRGRGRGRGFGGANHGGYMNAGAGYGSYGYGGNSATAGYSQFYSNGGHSGNASGGGGGGGGGSSGYGSYYQGDNYNSPVPPKHAGKKQPHGGQQKPSYGSGYQSHQGQQQSYNQSPYSNYGPPQGKQKGYNHGQGSYSYSNSYNSPGGGGGSDYNYESKFNYSGSGGRSGGNSYGSGGASYNPGSHGGYGGGSGGGSSYQGKQGGYSQSNYNSPGSGQNYSGPPSSYQSSQGGYGRNADHSMNYQYR
B5: SRSF3 (protein, UniProt P84103 1-164, looked up)
Serine/arginine-rich splicing …: MHRDSCPLDCKVYVGNLGNNGNKTELERAFGYYGPLRSVWVARNPPGFAFVEFEDPRDAADAVRELDGRTLCGCRVRVELSNGEKRSRNRGPPPSWGRRPRDDYRRRSPPPRRRSPRRRSFSRSRSRSLSRDRRRERSLSRERNHKPSRSFSRSRSRSRSNERK
B6: PURA (protein, UniProt Q00577 2-322, looked up)
Transcriptional activator …: ADRDSGSEQGGAALGSGGSLGHPGSGSGSGGGGGGGGGGGGSGGGGGGAPGGLQHETQELASKRVDIQNKRFYLDVKQNAKGRFLKIAEVGAGGNKSRLTLSMSVAVEFRDYLGDFIEHYAQLGPSQPPDLAQAQDEPRRALKSEFLVRENRKYYMDLKENQRGRFLRIRQTVNRGPGLGSTQGQTIALPAQGLIEFRDALAKLIDDYGVEEEPAELPEGTSLTVDNKRFFFDVGSNKYGVFMRVSEVKPTYRNSITVPYKVWAKFGHTFCKYSEEMKKIQEKQREKRAACEQLHQQQQQQQEETAAATLLLQGEEEGEED
B7: HNRNPH3 (protein, UniProt P31942 1-346, looked up)
Heterogeneous nuclear …: MDWVMKHNGPNDASDGTVRLRGLPFGCSKEEIVQFFQGLEIVPNGITLTMDYQGRSTGEAFVQFASKEIAENALGKHKERIGHRYIEIFRSSRSEIKGFYDPPRRLLGQRPGPYDRPIGGRGGYYGAGRGSMYDRMRRGGDGYDGGYGGFDDYGGYNNYGYGNDGFDDRMRDGRGMGGHGYGGAGDASSGFHGGHFVHMRGLPFRATENDIANFFSPLNPIRVHIDIGADGRATGEADVEFVTHEDAVAAMSKDKNNMQHRYIELFLNSTPGGGSGMGGSGMGGYGRDGMDNQGGYGSVGRMGMGNNYSGGYGTPDGLGGYGRGGGGSGGYYGQGGMSGGGWRGMY

Assays:
Assay type in all cases: binding
SARS-CoV-2 gRNA = conditions: […]; LC-MS/MS; Probe I sample (first 199 lines of Table 2)
[1] = test system: SARS-CoV-2 gRNA and sgRNAs; conditions: for target (unweighted spectral count in RNP capture): Probe II capture, LC-MS/MS LFQ; for background (unweighted spectral count in control): no-probe control pull-down, used as background for Probe II
gRNA of HCoV-OC43 = conditions: for target (spectral count) / background (spectral count): type g_36_m, 36 hpi, Probe I; for target (spectral count): HCoV-OC43-infected HCT-8 cells; for background (spectral count): uninfected-probe control
HCoV-OC43 gRNA and sgRNA = conditions: for target (spectral count) / background (spectral count): type s_36_m, Probe II; for target (spectral count): HCoV-OC43-infected HCT-8 cells; for background (spectral count): uninfected-probe control
[2] = type n_48_v: 48 hours post-infection, infected cells, OC43 Probe I, unweighted spectral count
[3] = type n_48_v: 48 hours post-infection, no-probe control on infected cells
[4] = 36 hpi, type n_36_v, tested against no-probe control, FDR<10%
[5] = type n_48_v, 48 hpi, OC43 Probe II capture on infected cells
[6] = type n_48_v, 48 hpi, no-probe control on infected cells
[7] = OC43 Probe II, 12 hpi (type n_12_v), infected cells, tested against no-probe control
[8] = OC43 Probe II, 24 hpi (type n_24_v), infected cells, tested against no-probe control

Molecule	target (unweighted spectral count of the protein in the RNP capture) (SARS-CoV-2 gRNA)	target (unweighted spectral count in RNP capture) [1]	background (unweighted spectral count in control) [1]	target (spectral count, OC43 Probe I RNP capture) (gRNA of HCoV-OC43; [2])	background (spectral count, no-probe control) (gRNA of HCoV-OC43; [3])	target (unweighted spectral count, OC43 Probe II capture) (HCoV-OC43 gRNA and sgRNA; [4])	target (unweighted spectral count, OC43 Probe II) (HCoV-OC43 gRNA and sgRNA; [5])	background (unweighted spectral count, no-probe control) (HCoV-OC43 gRNA and sgRNA; [6])	target (spectral count) (HCoV-OC43 gRNA and sgRNA; 36 hpi)	background (spectral count) (HCoV-OC43 gRNA and sgRNA; 36 hpi)	target (spectral count) (gRNA of HCoV-OC43)	background (spectral count) (gRNA of HCoV-OC43)	target (unweighted spectral count) (HCoV-OC43 gRNA and sgRNA; [7])	target (unweighted spectral count) (HCoV-OC43 gRNA and sgRNA; [8])	other results
B1	20	11	1	11	1	7	9	1	7	1	–	–	–	–	–
B2	32	21	1	–	2	17	21	2	17	1	15	2	6	12	–
B3	15	21	1	17	1	10	–	–	–	–	14	2	–	–	target (unweighted spectral count, OC43 Probe II capture) (HCoV-OC43 gRNA and sgRNA; 24 hpi, type n_24_v, tested against no-probe control, FDR<10%): 6
B4	15	15	1	38	2	31	36	2	31	3	39	3	7	14	–
B5	16	20	1	–	–	–	–	–	–	–	–	–	–	–	background (spectral count, no-probe control) (gRNA of HCoV-OC43): 3; target (spectral count, OC43 Probe I RNP capture) (gRNA of HCoV-OC43): 14; background (unweighted spectral count, no-probe control) (HCoV-OC43 gRNA and sgRNA): 3; target (unweighted spectral count) (HCoV-OC43 gRNA and sgRNA): 6; target (unweighted spectral count, OC43 Probe II capture) (HCoV-OC43 gRNA and sgRNA): 18; target (unweighted spectral count, OC43 Probe II) (HCoV-OC43 gRNA and sgRNA): 16
B6	15	19	1	7	1	5	12	1	–	–	–	–	–	–	–
B7	23	17	1	16	2	18	21	2	–	–	–	–	6	15	–
